Values quoted from earlier work in patent US12678516B2, “Immunostimulatory toll-like receptor agonist-nanoparticle for cancer immunotherapy” (The Board of Trustees of the Leland Stanford Junior …, priority 2021, dated 2026).

What was measured:
[1] = not given; remark: listed apart in the source

Substance | toxicity with more frequent dosing (10 mg/kg monthly vs 15 mg/kg every 3 months, phase II) | sustained plasma levels in patients with the majority of responses (at one month) [µg/mL] | doses at which objective responses were evident (single antibody infusion, doses 0.01 to 15 mg/kg) [mg/kg] | grade Ill/IV enterocolitis, share of patients ([1]; 10 mg/kg) | hepatitis (irAE) ([1]; CTLA-4 blockade, patients) | hypophysitis (irAE) ([1]; CTLA-4 blockade, patients) [%] | leucopenia (irAE) ([1]; CTLA-4 blockade, patients) [%] | pancreatitis (irAE) ([1]; CTLA-4 blockade, patients) [%] | rash/pruritus (irAE) ([1]; CTLA-4 blockade, patients) [%] | uveitis (irAE) ([1]; CTLA-4 blockade, patients) [%]
Tremelimumab: fully humanized CTLA4 antibody | doubled | > 30 | ≥ 3 |  |  |  |  |  |  | 
ipilimumab: fully humanized CTLA4 antibody |  |  |  | ~ 15% | 5-10% | 5 | < 2 | < 2 | > 50 | < 2
